First the molecules themselves.
B1: R12 (previously published ROR1 antibody) (antibody, V domains shown)
VH: QEQLVESGGRLVTPGGSLTLSCKASGFDFSAYYMSWVRQAPGKGLEWIATIYPSSGKTYYATWVNGRFTISSDNAQNTVDLQMNSLTAADRATYFCARDSYADDGALFNIWGPGTLVTISS
VL: ELVLTQSPSVSAALGSPAKITCTLSSAHKTDTIDWYQQLQGEAPRYLMQVQSDGSYTKRPGVPDRFSGSSSGADRYLIIPSVQADDEADYYCGADYIGGYVFGGGTQLTVTG
B2: D10 (previously published ROR1 antibody, the prototype of Cirmtuzumab) (antibody, V domains shown)
VH: QVQLKESGPGLVAPSQTLSITCTVSGFSLTSYGVHWVRQPPGKGLEWLGVIWAGGFTNYNSALKSRLSISKDNSKSQVLLKMTSLQTDDTAMYYCARRGSSYSMDYWGQGTSVIVSS
VL: EIVLSQSPAITAASLGQKVTITCSASSNVSYIHWYQQRSGTSPRPWIYEISKLASGVPVRFSGSGSGTSYSLTISSMEAEDAAIYYCQQWNYPLITFGSGTKLEIQ
B3: 4a5 (previously published ROR1 antibody) (antibody, V domains shown)
VH: EVKLVESGGGLVKPGGSLKLSCAASGFTFSSYAMSWVRQIPEKRLEWVASISRGGTTYYPDSVKGRFTISRDNVRNILYLQMSSLRSEDTAMYYCGRYDYDGYYAMDYWGQGTSVTVSS
VL: DIKMTQSPSSMYASLGERVTITCKASPDINSYLSWFQQKPGKSPKTLIYRANRLVDGVPSRFSGGGSGQDYSLTINSLEYEDMGIYYCLQYDEFPYTFGGGTKLEMK
B4: Clone J chimeric ROR1 antibody (antibody, V domains shown)
VH: DVKLVESGGGLLKPGGSLKLSCVASGFSFSKYWMHWVRQAPGQGLEWIAEIEYDGTETNYAPSIKDRFTISRDNAKNTLYLQMSNVRFEDAATYFCTTEEMHTTDYYYGFAYWGQGTLVTVSS
VL: DIVLTQSPALAVSVGQRATISCRASQSVSISRYDFMHWYQQKPGQQPKLLIYRASNLASGIPARFSGSGSGTDFTLTINPVQADDIATYYCQQNRESPRTFGGGTKLELK
notes: also called J6
B5: Clone E7 chimeric ROR1 antibody (antibody, V domains shown)
VH: GKLVESGGGLLKPGGSLKLSCVASGFTFDKYWMHWVRQAPGKGLEWIAEIEYDGTETNYAPSIKDRFTISRDNAKNTLYLQMSNVRSEDAATYFCTTEEMYTTDYYYGFAYWGQGTLVTVSS
VL: B4 VL with D34N
B6: Clone G3 chimeric ROR1 antibody (antibody, V domains shown)
VH: EVQLQESGPGLVKPAQSLSLTCSVTGYSITNMYRWNWIRKFPGNKLEWMGYINTAGSTDYSPSLRGRVSITGDTSKNQFFLHLTSVTTEDTATYYCAGFITNPFDFWGQGVMVTVSS
VL: DVVMTQTPVSLPVSLGGQVSISCRSSQSLEHSNGDTFLHWYLQKPGQSPRLLIYRVSNRFSGVPDRFSGSGSGTDFTLKISRIEPEDLGDYYCLQSTHFPNTFGAGTKLELK
B7: Clone I chimeric ROR1 antibody (antibody, V domains shown)
VH: EVQLVESGGGSVQPGRSLKLSCAASGFTFSDYNMAWVRQAPKKGPEWVATITYDVHNAYYRDSVKGRFTISRDDAKSTLYLQMDSLRSEDTATYFCARPGAYWGQGTLVTVSS
VL: DIQLTQSPSSMSASLGDRVSLTCQSSQGIGKYLSWYQHKPGKPPKAMIYYATKLADGVPSRFSGSRSGSDFSLTISSLESEDIAIYYCLQFDDYPWTFGGGTKLELK
B8: Clone Pi chimeric ROR1 antibody (antibody, V domains shown)
VH: EVQLVESGGGLVQPGRSLTLSCSASGFTFRDYNMAWVRQAPRKGLEWVATISFDDYNTYYRDSVKGRFTISRDDAKSTLYLQMDSLRSEDTATYYCARPGTYWGQGTLVTVSS
VL: DIQLTQSPSSLSASLGDRVSLTCQSSQGIGKYLSWFQHKPGKPPKPVINYATNLADGVPSRFSGRRSGSDFSLTISSLESEDTAIYYCLQFDDFRWTVGGGTKLELK
B9: Clone O chimeric ROR1 antibody (antibody, V domains shown)
VH: QVRLLQSGAALVKPGASVKMSCKASGYTFTDYWMSWVKQSHGKSLEWIGEIYPNSGATNFNEKFKDKATLTVDRSTSTAYMELSRLTSEDSAIYYCARGFPNNYLSWFAYWGQGTLVTVSS
VL: DIVLTQSPALAVSLEQRVTIACKTSQNVDNHGISYMHWYQQKSGQEPKLLIYEGSNLAVGIPARFSGSGSGTDFTLTIDPVEADDIETYYCQQSKDDPRTFGGGTKLELK
B10: Clone G5 chimeric ROR1 antibody (antibody, V domains shown)
VH: EVQVVESGGGLVQPGRSLKLSCVPSGFTFNNYWMTWIRQAPGKAPEWVASISNTGGSTFYPDSVRGRFSISRDNTKGTLYLHMTSLRSEDTATYYCIRNMDAWGQGTSVTVSS
VL: DIQLTQSPSTLSASLGERVTISCRASQSISNSLNWYQQKPDGTVKRLIYSTSTLESGVPSRFSGSGSGTDFSLSISSLESEDFAMYYCLQFATYPQVTFGSGTKLEIK
B11: Clone B chimeric ROR1 antibody (antibody, V domains shown)
VH: DVQLEESGGGLVRPGRSLKLSCADSGVNFSNRGMAWVRQAPTKGLEWVATISYDGRIIYYRDSVKGRFSISRENAKSTLYLQMDSLRSEDTATYYCARHPIAADWYFDFWGPGTMVTVSS
VL: DIRMTQSPASLSASLGETVTIECLTSEDIYSDLAWFQQKPGKSPQLLIYDANSLQNGVPSRFGGCGSGTQYSLQISSLQSEDVATYFCQQYKNYPPTFGGGTKLVLK
notes: also called B5

Changes are numbered by the printed parent chain.

The term Kd denotes the free concentration of one partner at which half of the binding sites on the other are occupied at equilibrium, for simple one-to-one binding. A high value points to weaker binding. What is called koff is a measure of how fast the partners let go of each other. A word on the kon: it is a measure of how fast the partners come together. Read a low kon as slower complex formation.

T4 sequence (Q01973 312-391 limits assumed): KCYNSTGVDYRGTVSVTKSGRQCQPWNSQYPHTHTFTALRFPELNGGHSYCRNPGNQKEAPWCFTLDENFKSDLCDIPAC
T1 sequence (Q01973 30-406): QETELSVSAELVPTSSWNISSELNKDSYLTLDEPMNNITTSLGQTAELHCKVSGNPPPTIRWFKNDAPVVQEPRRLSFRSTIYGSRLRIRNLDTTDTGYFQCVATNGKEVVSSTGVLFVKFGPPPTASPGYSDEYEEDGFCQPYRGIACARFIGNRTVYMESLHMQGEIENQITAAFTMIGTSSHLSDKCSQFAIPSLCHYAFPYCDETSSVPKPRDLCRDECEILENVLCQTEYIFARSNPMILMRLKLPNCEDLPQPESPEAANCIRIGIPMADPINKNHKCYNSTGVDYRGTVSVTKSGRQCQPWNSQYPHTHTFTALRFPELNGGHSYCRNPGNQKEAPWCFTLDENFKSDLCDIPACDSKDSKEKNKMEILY

One assay has as its target T1, ROR1, full extracellular region, on transduced SUP-T1 cells (UniProt Q01973 30-406).
T1 construct: extracellular domain; also called eROR1; extracellular ROR1
In words: flow cytometry, ROR1-transduced cells, single staining; Q1 = ahFc+ only; amFc+ahFc alone Q1 0.060 (FIG. 7A). (In general: In flow cytometry, cells or beads pass a laser one at a time.)
Regarding B1, the Q1 quadrant figure was determined as 96.9.

B2 registered a Q1 quadrant figure of 84.3.

B3 displayed a Q1 quadrant figure of 96.9.

For a further assay, the target named is T2, Fz+Kg (human, UniProt Q01973).
T2 construct: also called ROR1 Frizzled+Kringle domains, on transduced SUP-T1 cells
T2 sequence (Q01973 165-391 limits assumed): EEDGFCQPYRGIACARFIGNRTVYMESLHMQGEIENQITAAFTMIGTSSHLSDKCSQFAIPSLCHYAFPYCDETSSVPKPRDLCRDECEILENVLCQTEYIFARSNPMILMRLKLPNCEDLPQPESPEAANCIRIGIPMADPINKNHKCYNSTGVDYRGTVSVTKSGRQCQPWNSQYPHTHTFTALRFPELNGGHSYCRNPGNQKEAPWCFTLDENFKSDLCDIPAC
In words: flow cytometry, transduced SUP-T1 cells, anti-human Fc-Dylight647. The protocol:
(§1) FIG. 1A-FIG. 1C: Identification of ROR1 binding domain: FIG. 1A: SUP-T1 cells were transduced with retroviral vectors containing either the full extracellular portion of ROR1 or only one or two extracellular domains. Non-transduced SUP-T1 (SUP-T1 NT) cells served as negative control. FIG. 1B: All 12 chimeric antibodies and FIG. 1C all 10 positive clones in scFv format were incubated with SUP-T1 NT and the new stable cell lines at 4° C. for 30 min. Cells were washed and stained with a secondary antibody (anti-human Fc-Dylight647), which was used as negative control. eROR1=extracellular ROR1, Ig-like=Immunoglobulin-like domain, Fz=Frizzled domain, Kg=Kringle domain.
On to B4, for which the binding result is “no binding”.

In the case of B5, the binding result is given as “no binding”.

Consider B6, for which the binding result was “no binding”.

For the molecule B7, the binding result is given as “no binding”.

Consider B8, for which the binding result was “no binding”.

Consider B9, for which the binding result is recorded as “no binding”.

In the case of B10, the binding result is “no binding”.

Take B11: the binding result is “no binding”.

The target in the next assay is T3, ROR1 Frizzled domain alone, on transduced SUP-T1 cells (human, UniProt Q01973 165-299).
T3 construct: domain: Fz; also called Fz; ROR1-Fz domain
T3 sequence (Q01973 165-299): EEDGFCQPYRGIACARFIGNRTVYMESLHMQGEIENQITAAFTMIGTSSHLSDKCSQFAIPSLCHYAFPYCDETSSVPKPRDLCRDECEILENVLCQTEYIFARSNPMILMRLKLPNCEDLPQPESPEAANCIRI
Described as above. The protocol:
as §1
Consider B4, for which the binding result was “no binding”.

As to B5, the binding result is on record as “no binding”.

Turning to B6, the binding result is listed as “no binding”.

Regarding B7, the binding result was “no binding”.

Turning to B8, the binding result is “no binding”.

Consider B9, for which the binding result is given as “no binding”.

For B10, the binding result was “no binding”.

As to B11, the binding result is “no binding”.

Another assay has as its target T4, Kringle (Kg) (human, UniProt Q01973).
T4 construct: also called ROR1 Kringle domain alone, on transduced SUP-T1 cells
Described as above. The procedure: as §1
As for B4, the binding result was “no binding”.

For the molecule B5, the binding result is “no binding”.

Regarding B6, the binding result is “no binding”.

Regarding B7, the binding result is reported as “no binding”.

B8: the binding result is “no binding”.

On to B9, for which the binding result is reported as “no binding”.

Turning to B10, the binding result is “no binding”.

In the case of B11, the binding result is “no binding”.

The target of the next assay is T1, ROR1, full extracellular region, on …. The assay can be described thus: flow cytometry, ROR1-transduced cells, single staining; Q1 = ahFc+ only; amFc+ahFc alone Q1 0.060. The text has this:
FIG. 7A-FIG. 7C: Competition assay by flow cytometry. Clone A (SA1) in murine IgG2a, k (mSA1) along with other ROR1 MAbs in human IgG1, k-including previously published 4a5, D10 and R12 clones—were used for staining ROR1-transduced cells. MAb staining was done as FIG. 7A-FIG. 7B: single agents or FIG. 7C: in combination with clone A (mSA1). Anti-human IgG (450) and anti-mouse IgG (DyLight649) were used as secondary antibodies. Combined staining using clones F and mSA1 acted as negative control for overlapping epitopes.
In FIG. 7C, three different columns are presented. Dot plots on the first column correspond to ROR1 binding assessed when SUP-T1 ROR1 cells were stained with clone A (SA1) (mIgG) in the first instance. After a washing step, cells were stained with a competitor antibody (hIgG), followed by another washing step. Both antibodies were then detected by a third staining step using the appropriate secondary antibodies. In the second column, a similar approach was taken when staining these cells, except that this time it was the antibody in hIgG1, k format the one used for the first staining step, followed by clone A (SA1) staining. On the third column, both antibodies were used at the same time.
In the case of B6, the Q1 quadrant figure was determined as 96.1.

Regarding B10, the Q1 quadrant figure is 96.7.

The target of another assay is T5, Histidine-tagged ROR1 protein (extracellular region) (UniProt Q01973 30-406).
T5 construct: extracellular domain; also called extracellular portion of ROR1 bearing a Histidine tag; not shown: Histidine tag
T5 sequence (Q01973 30-406): as the sequence (Q01973 30-406) above
In words: SPR, Biacore X100; antibody captured by anti-human IgG1 on CM5 chip, His-tagged ROR1 extracellular portion injected at 1.5-100 nM. The procedure: FIG. 3: KD determination by surface plasmon resonance. Sensorgrams obtained using a Biacore X100 instrument are shown. Briefly, ROR1 antibodies were immobilized using a CM5 chip and seven different concentrations of the Histidine-tagged ROR1 protein (extracellular region) were injected. Concentrations ranged from […].
We undertook surface plasmon resonance evaluation using a Biacore X100 instrument. ROR1 chimeric antibodies were immobilised using an anti-human IgG1 antibody capture kit and a CM5 sensor chip. Seven different concentrations, ranging from 1.5-100 nM, of the extracellular portion of ROR1 bearing a Histidine tag were then injected.
(In general: In SPR one partner is held on a chip, and binding of the other changes the refractive index at the surface.)
B4 returned a Kd of 3.35 nM, an off-rate constant (koff) of 0.000835 s⁻¹ and a kon of 249000 M⁻¹ s⁻¹.

As to B5, binding was characterised by a dissociation constant (Kd) of 2.04 nM, the dissociation rate constant (koff) was 0.000849 s⁻¹ and the on-rate constant (kon) worked out at 417000 M⁻¹ s⁻¹.

On to B6, for which the affinity, expressed as Kd, was 2.45 nM; the off-rate (koff) amounted to 0.000266 s⁻¹; the kon was 109000 M⁻¹ s⁻¹.

Molecule B7 gave a dissociation constant Kd of 2.44 nM, a dissociation rate constant (koff) of 0.00051 s⁻¹ and a kon of 209000 M⁻¹ s⁻¹.

B8 displayed a Kd of 1.98 nM, a koff of 0.000349 s⁻¹ and an on-rate constant (kon) of 176000 M⁻¹ s⁻¹.

With B9, the equilibrium dissociation constant (Kd) worked out at 3.5 nM, the koff turned out to be 0.000607 s⁻¹ and the association rate constant (kon) was 174000 M⁻¹ s⁻¹.

B10 came in with a Kd of 2.61 nM, a koff of 0.000416 s⁻¹ and an association rate constant (kon) of 159000 M⁻¹ s⁻¹.

B11 had a dissociation constant Kd of 1.5 nM, an off-rate constant (koff) of 0.000698 s⁻¹ and an on-rate constant (kon) of 464000 M⁻¹ s⁻¹.

The values above are taken from patent publication US20230220073A1 (UCL BUSINESS, published 2023).
